The results in this text go back to the nanobody polyreactivity screen of Harvey et al. (2022).

This series is described as follows: yeast display, Sf9 membrane polyspecificity reagent, FACS + sequencing; frameworks hold sequencing errors. A digest of the protocol:
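After 36–48 hours of galactose induction, yeast (Saccharomyces cerevisiae BJ5465) displaying a synthetic nanobody library were stained at 4 °C for 1 hour with 10% biotinylated, detergent-solubilized Sf9 membrane reagent. Streptavidin microbeads enriched the stained cells before FACS sorting into low and high (top ~1%) gates on anti-HA and streptavidin fluorescence. Each clone's polyreactivity label reflects its gate of origin.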
Regarding “QVQLVESGGGLVQAGGSLRLSCAASGSTIWYYVMGWYRAAPGKERELVAAIRSNDGSTYYADSVKGRFTISRDNAKNTDYLQLNRLKPEDTAVYYCAADDWVYAQEYDYWGQGTQVTVSS”, the “polyreactivity (PSR sort gate)” value is given as “low polyreactivity”.
Turning to “QVQLVESGGGLVQAGGSLRLSCAASGSTIYDNAMGWSRQAPGKERELVAAITWSVGRTYYADSVKGRFTISRDNAKNTVYLQMNSLKPEDTAVYYCAARYQYYSTYGVTLDYWGQGTQVTVSS”, the “polyreactivity (PSR sort gate)” value is listed as “low polyreactivity”.
To “QVQLVESGGGLVQAGGSLRLSCAASGSTIYTYVMGWYRPAPGKERELVAAISWSGSSTYYADSVKGRFTISRDNAKNTVYLQMNSLKPEDTAVYYCNAQYRRGWWGVEYGYWGQGTQVTVSS” belongs “low polyreactivity”; to “QVQLVESGGGLVQAGGSLRLSCAASGSTLARNVMGWYRQAPGKERELVAAISTSGGITYYADSVKGRFTISRDNAKNTVYLQMNSLKPEDTADYYCAKYYYNPYSKMDYWGQGTQVTVSS”, “low polyreactivity”; to “QVQLVESGGGLVQAGGSLRLSCAASGSTLASYAMGWYRQAPGKERELVAAISLSGGSTYYADSVKGRFTISRDNAKNTVYLQMNSLKPEDTAVYYCAAETVRYEWGESPAALFDYWGQGTQVTVSS”, “low polyreactivity”.
To “QVQLVESGGGLVQAGGSLRLSCAASGSTLASYAMGWYRQAPGKERELVAAISSSGGSTYYADSVKGRFTISRDNAKNTVYLQMNSLKPEDTAVYYCAARTRTRYGIDYYWGQGTQVTVSS” belongs “high polyreactivity”; to “QVQLVESGGGLVQAGGSLRLSCAASGSTLATNAMGWYRQAPGKERELVAYADSVKGRFTISRDNAKNTVYLQMNSLKPEDTAVYYCNVEAPGRAQYGYPQGDYWGQGTQVTVSS”, “low polyreactivity”.
To “QVQLVESGGGLVQAGGSLRLSCAASGSTLAVYAMGSYRQAPGKERELVAAISKRGGTTYYADSVKGRFTISRDNAKNTVYLQMYSLKPDDTAVYYCARESYYRGNYDYDYWGQGTQVTVSS” belongs “high polyreactivity”; to “QVQLVESGGGLVQAGGSLRLSCAASGSTLDRNTMGWYRQAPGKERELVAAITSSGGRTYYADSVKGRFTISRDNEKNTVYFQMNSLKPDDTAVYYCNNDYWKRPVDEYDYWGQGTQVTVSS”, “high polyreactivity”; to “QVQLVESGGGLVQAGGSLRLSCAASGSTLDRYVMGWYRQATGKERELVAAISRNGGSTYYADSVKGRFTISRDNAKNTVYLQMNSLIPEDTAVYNCARYAGFPYTQGDYWGQGTQVTVSS”, “high polyreactivity”.
In the case of “QVQLVESGGGLVQAGGSLRLSCAASGSTLDVYAMGWYRQAPGKERELVAAITVRATSTYYADSVKGRFTISRDNAKNTVYLQMNSQKPEDTAVYYCDARYEFFYKAFDVDSWGQGTQVTVSS”, the “polyreactivity (PSR sort gate)” value was “low polyreactivity”.
On to “QVQLVESGGGLVQAGGSLRLSCAASGSTLDYNAMGWYRQAPGKEREFVADITWSGGSTHYADSVKGRFTISRDNSKNTVYLQMNSLKPEDTAVYYCATAYYYHGGYYYPYDDYWGQGTQVTVSS”, for which the “polyreactivity (PSR sort gate)” value is “low polyreactivity”.
To “QVQLVESGGGLVQAGGSLRLSCAASGSTLEFNAMGWYRQAPGKERELVAVINRSDGSTYYADSVKGRFTISRDNAKNTVYLQMNSLKPEDTADYYCAADRHQVSVISTEDYWGQGTQVTVSS” belongs “low polyreactivity”.
In the case of “QVQLVESGGGLVQAGGSLRLSCAASGSTLEYYAMGWYRQAPGKERELVAAISSGGSTNYADSVKGRFTISRDNAKNTVYLQMNSLKTEDTAVYYCAAERYYRFVYTCYDYWGQGTQVTVSS” it was “high polyreactivity”; in that of “QVQLVESGGGLVQAGGSLRLSCAASGSTLFAYAMGWYRQAPGTERELVAAITSGASTNYADSVKGRFTISRDNAKNTVYLQMNSLKPEDTAVYYCAKDVSGTNPDYDYWGQGTQVTVSS”, “low polyreactivity”.
In the case of “QVQLVESGGGLVQAGGSLRLSCAASGSTLFSYAMGWYRQAPRKEREFVAAISRRGGSTYYADSVKGRFTISRDNAKNTVYLQMNSLKPEVTAVYYCNTVRVHGFPIDRIYVYWGQGTQVTVSS”, the “polyreactivity (PSR sort gate)” value is recorded as “high polyreactivity”.
To “QVQLVESGGGLVQAGGSLRLSCAASGSTLFYAMGWYRQAPGKERELHAAISWSGGSTRYADSVKGRFTISRDNAKNTVYLQMNIMKPEDTAVYYCNTYTKHTGYYWKYDYWGQGTQVTVSS” belongs “low polyreactivity”; to “QVQLVESGGGLVQAGGSLRLSCAASGSTLGGNAMGWYRRAPGKERELVAAITSSAGSTYYADSVKGRFTISRDNAKNTVYLQMNSLKPEDTAVYYCAADYSRDEYDYWGQGTQVTVSS”, “low polyreactivity”; to “QVQLVESGGGLVQAGGSLRLSCAASGSTLGGYAMGWYRQAPGKERELVAAISGSRGSTYYADSVKGRFTISRDNAKNTVYLQMTSLKPEDTAVYYCAAGSYWVQYQYDYWGQGTQVTVSS”, “low polyreactivity”.
In the case of “QVQLVESGGGLVQAGGSLRLSCAASGSTLGRYALGWYRQAPGKERELVASITWSDDSTYYADSVKGRFTISRDNAKNTVYLQMNSLKPEDTAVYYCAAAGNLYTYRFYYWGQGTQVTVSS” it was “low polyreactivity”; in that of “QVQLVESGGGLVQAGGSLRLSCAASGSTLGRYAMGWYRQAPGKERELVASITWSDDSTYYADSVKGRFTISRDNAKNTVYLQMNSLKPEDTAVYYCNAPPGTFQWQGHSDYWGQGTQVTVSS”, “low polyreactivity”.
To “QVQLVESGGGLVQAGGSLRLSCAASGSTLGRYSMGWYRQAPGKERELVAAISWRGGSTYYADSVKGRFTISRDNAKNTVYLQMNSLKPEDTPVYYCAATYRFSEYYYWGQGTQVTVSS” belongs “high polyreactivity”; to “QVQLVESGGGLVQAGGSLRLSCAASGSTLGVNAMGWYRQAPGKEREFVAAITGRGGNTYYADSVKGRFTISRDNAKNTVYLQMNSLTPEDTAVYYCAARDKYTRYQSILDYYYWGQGTQVTVSS”, “high polyreactivity”; to “QVQLVESGGGLVQAGGSLRLSCAASGSTLHEYAMGWSIQAPGKERELVAAISRGGGNTNYADSVKGRFTISRDNAKNTVYLQMNSLKPEDTAVYYCNARHGKIIFYLERYDYWGQGTQVTVSS”, “low polyreactivity”.
For the sequence “QVQLVESGGGLVQAGGSLRLSCAASGSTLHEYAMGWYRQAPGKARELVAAISRGGGNTNYADSVKGRFTISRDNAKNTVYLQMNSLIPEDTAVYYCNARHGKIIFYLERYDYWGQGTQVTVSS”, the “polyreactivity (PSR sort gate)” value is “low polyreactivity”.
In the case of “QVQLVESGGGLVQAGGSLRLSCAASGSTLKYNALGWYRQAPGKERELVAAISTSGGNTYYADSVKGRFTISRDYAKNTVYLQMNTLKPEDTAVYYCAKVLGFYYYDYYTPFARGYWGQGTQVTVSS” it was “low polyreactivity”; in that of “QVQLVESGGGLVQAGGSLRLSCAASGSTLLYYVMGWYRQAPGKERELVAAITGTGGRTYYADSVKGRFTISRDNAKNTVYLQMNSLKPEDTAVYYCAADGKFEYDYWGQGTQVTVSS”, “low polyreactivity”; in that of “QVQLVESGGGLVQAGGSLRLSCAASGSTLNRNAMGWYRQAPGKERELVAAIRVSGGSTYYADSVKGRFTISRDNAKNTVYLQMNSLKPEDTAVYYCATRYVRARWYGYWGQGTQVTVSS”, “high polyreactivity”.
Take “QVQLVESGGGLVQAGGSLRLSCAASGSTLNRNVMGWYRQAPGKERELVAVITYGVGSTYYADSVKGRFTISRDNAKNTVYLQMNSLKPEDTAVYYCNRPTYLHSTSYSYDYWGQGTQVTVSS”: the “polyreactivity (PSR sort gate)” value was “low polyreactivity”.
In the case of “QVQLVESGGGLVQAGGSLRLSCAASGSTLNYYAMGWYRQAPGKERELVAAIRSGGNTNYADSVKGRFTISRDNAKNTVYLQMNSLKPEDTAVYYCAKDESYFYDRVPLDYWGQGTQVTVSS” it was “low polyreactivity”.
